Laboratory results as given in CN111620946A (JIANGSU DISEASE CONTROL AND PREVENTION CENTER JIANGSU …, dated 2020).

What was measured:
[1] = molecular target: SARS-CoV-2 S蛋白 (spike) on live virus, 分离株 BetaCoV/JS03/human/2020 (SARS-CoV-2, UniProt P0DTC2 14-1273); test: cell-based or functional assay
[2] = molecular target: 重组SARS-CoV-2刺突蛋白胞外区 (extra cellular domain of spike protein) (SARS-CoV-2, UniProt P0DTC2 14-1213); test: SPR, Biacore 8K, S-ECD coupled to a CM5 chip, antibody 125nM~7.8nM in solution
[3] = molecular target: SARS-CoV-2 S蛋白 (spike) on live virus, 分离株 BetaCoV/JS03/human/2020 (SARS-CoV-2, UniProt P0DTC2 14-1273); test: cell-based or functional assay; remark: listed apart in the source

B1: FC08 (antibody, V domains shown)
VH: VQLLQQSGAEVKKPGSSVKVSCKASGGTFSSYAISWVRQAPGQGLEWMGGIIPILGIANYAQKFQGRVTITADKSTSTAYMELSSLRSEDTAVYYCVRERGYSGYGAAYYFDYWGQGTLVTVSS
VL: QSVLTQPPSVSGAPGQRVTISCTGSSSNIGAGYDVHWYQQLPGTAPKLLIYGNSNRPSGVPDRFSGSKSGTSASLAITGLQAEDEADYYCQSYDSSLSGSVFGGGTKLTVL
IC50(ng/ml), 体外中和实验 (live virus, Vero E6, CPE) [1]: 325 ng/mL | Kd [2]: 800 pM

B2: FC11 (antibody, V domains shown)
VH: EVQLLESGGGVVQPGRSLRLSCAASGFTFSYYGMHWVRQAPGTGLEWVAVISYDGSNEYYADSVKGRFTISRDNSKNTLYLQMNSLRAEDTAVYYCAKAMFLGDSSGLTGLDMDVWGQGTTVTVSS
VL: DIELTQSPGTLSLSPGERATLSCRASQSVSSYLAWYQQKPGQAPRLLIYDASNRATGIPARFSGSGSGTDFTLTISSLEPEDFALYYCQQRGNWPPTFGGGTKLEIK
IC50(ng/ml), 体外中和实验 (live virus, Vero E6, CPE) [1]: 818 ng/mL | Kd [2]: 500 pM

B3: FC05 (antibody, V domains shown)
VH: VQLLEQSGAEVKKPGASVRVSCKVSGYTLPEVAMHWVRQAPGKGLEWMGGFDPEDGETIYAQKFQGRVTMTEDTSTDTAYMELSSLRSEDTAVYYCATTTPFSSSFWFDPWGQGTLVTVSS
VL: QSVLTQAPSVSGAPGQKVTISCSGSSSNIGNNYVSWYQQLPGTAPKLLIYDNNKRPSGIPDRFSGSKSGTSATLGITGLQTGDEADYYCGTWDSSLSAVVFGGGTKLTVL
IC50(ng/ml), 体外中和实验 (live virus, Vero E6, CPE) [3]: 142 ng/mL
